Experimental data as given in patent publication US20230212319A1, “NOVEL ANTIGEN BINDING DOMAINS AND SYNTHETIC ANTIGEN RECEPTORS INCORPORATING THE SAME” (University of Southern California, priority 2020, published 2023).

Key:
[1] = JNG NFAT-GFP background GFP induction (tonic signaling); conditions: JNG cells expressing construct, without target
L363 cells = assay: JNG assay, co-culture with L363 cells; type: cell-based; conditions: co-culture with L363
In short: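 Jurkat NFAT-GFP (JNG) cells stably transduced with SARs by lentivirus, with drug selection where the construct carried a resistance gene, then co-cultured with target cells at E:T ~1:2 for ~4–18 h. % GFP-positive cells measured by FACS against parental JNG; +/- to 5+ correspond to ~5–50% GFP-positive.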

B1: 21997 (protein)
chain: MALPVTALLLPLALLLHAARPQLQLQESGPGLVKPSETLALTCNVSGGSISSSSYYWGWIRQPPGKRLEWIGSIYYSGSTYFNPSLKSRVTISVDTSKNQFSLKLSSVTAADTAVYYCAGGDYYGPVGQWPSDYRGQGTLVTVSSLEDLKNVFPPEVAVFEPSEAEISHTQKATLVCLATGFYPDHVELSWWVNGKEVHSGVCTDPQPLKEQPALNDSRYCLSSRLRVSATFWQNPRNHFRCQVQFYGLSENDEWTQDRAKPVTQIVSAEAWGRADCGFTSESYQQGVLSATILYEILLGKATLYAVLVSALVLMAMVKRKDSRGRAKRSGSGATNFSLLKQAGDVEENPGPTSMDWIWRILFLVGAATGAHSFEQVQLVESGGGLVQPGGSLRLSCAASGFTFTNHAMSWVRQAPGKGLELVSSISGNGRTTYYADSVKGRFTISRDISKNTLDLQMNSLRAEDTAVYYCAKDGGETLVDSRGQGTLVTVSSTRIQNPDPAVYQLRDSKSSDKSVCLFTDFDSQTNVSQSKDSDVYITDKCVLDMRSMDFKSNSAVAWSNKSDFACANAFNNSIIPEDTFFPSPESSCDVKLVEKSFETDTNLNFQNLSVIGFRILLLKVAGFNLLMTLRLWSSRAKRSGSGVKQTLNFDLLKLAGDVESNPGPSRGHMTEYKPTVRLATRDDVPRAVRTLAAAFADYPATRHTVDPDRHIERVTELQELFLTRVGLDIGKVWVADDGAAVAVWTTPESVEAGAVFAEIGPRMAELSGSRLAAQQQMEGLLAPHRPKEPAWFLATVGVSPDHQGKGLGSAVVLPGVEAAERAGVPAFLETSAPRNLPFYERLGFTVTADVEVPEGPRTWCMTRKPGA
[1]
  NFAT-GFP ASSAY: Self Activation (SA): Self Activation
L363 cells
  NFAT-GFP ASSAY: L363: + (refer to approximately 5%, 10%, 20%, 30%, 40% and 50% GFP positive cells)
